Experimental findings from PMC5402698 are described below.

Data set [1] has as its target T1, EcoRV endonuclease (wild type) (UniProt P04390 2-245). Description: X-ray crystallography.
Data set [2] addresses T1, EcoRV endonuclease (wild type). Kind of data set: X-ray crystallography. This is another data set of the same source.
For data set [3] the target is unchanged. Description: NMR.
Data set [4] shares this target. Kind of data set: NMR. This is another data set of the same source.
Data set [5] has the same target. Kind of data set: NMR. This is another data set of the same source.

T1 sequence (P04390 2-245): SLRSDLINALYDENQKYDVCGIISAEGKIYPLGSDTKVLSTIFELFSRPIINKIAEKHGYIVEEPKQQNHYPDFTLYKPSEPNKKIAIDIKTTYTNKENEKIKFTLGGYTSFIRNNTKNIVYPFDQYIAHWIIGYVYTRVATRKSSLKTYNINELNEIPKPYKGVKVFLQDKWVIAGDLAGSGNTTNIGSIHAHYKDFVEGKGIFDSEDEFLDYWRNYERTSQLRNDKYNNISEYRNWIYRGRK

B1: cognate 12 bp crystal duplex (dsDNA)
DNA 1: AAAGATATCTTT
DNA 2: AAAGATATCTTT
As for B1, the binding result in data set [1] was “binds”.

B2: cleaved 12 bp crystal duplex (dsDNA)
DNA 1: AAAGAT
DNA 2: ATCTTT
Turning to B2, the binding result in data set [2] is reported as “binds”.

B3: cognate 16 bp GATATC (dsDNA)
DNA 1: GCAAAGATATCTTTCG
DNA 2: CGAAAGATATCTTTGC
As to B3, in data set [3], the binding result was “binds”.

B4: cleaved 24 bp duplex products (dsDNA)
DNA 1: CGCTGGAAAGAT
DNA 2: ATCTTTCCAGCG
DNA 3: ATCTTTGGAGGC
DNA 4: GCCTCCAAAGAT
Take B4: the binding result in data set [4] is recorded as “binds”.

B5: nonspecific 16 bp inverted site CTATAG (dsDNA)
DNA 1: GCAAACTATAGTTTCG
DNA 2: CGAAACTATAGTTTGC
Consider B5, for which the binding result in data set [5] was “binds”.
